Common to all, as to format: biochemical
Data set [1] deals with Trastuzumab-(Fucα1,6)(Galβ1,4)GlcNAc. The data set is described as follows: Transfer of GDP-FAmP4Biotin to Trastuzumab-(Fucα1,6)(Galβ1,4)GlcNAc by different HpFTs. The conditions noted are these: donor GDP-FAmP4Biotin 1 mM, enzyme 0.5 mg/mL, 30° C., 1 h; FIG. 2. Here is the method:
To 40 mM Tris-HCl (pH 7.5) buffer were added Trastuzumab-(Fucα1,6)(Galβ1,4)GlcNAc (2 mg/mL final), GDP-FAmP4Biotin (1 mM final), MgCl2 (20 mM final), and different HpFT enzymes (HpFT-4HR, HpFT-4HR(M4), HpFT-4HR(M7), HpFT-6HR, HpFT-3HR, HpFT-2HR, HpFT-1HR or HpFT-0HR) (0.5 mg/mL final) in sequence, and the resulting mixed solution was allowed to react at 30° C. for 1 h. Three parallels were set up for each group. After the reaction time point was reached, to the reaction solution was added 10 mM LacNA, and the reaction was terminated by a desalting column (Zeba™ Spin Desalting Columns/2 ml/40K, Thermo Fisher Scientific), and finally mass spectrometry was carried out and % of conversion was calculated. % of conversion=(MAR0 peak intensity*0+MAR1peak intensity*1+MAR2 peak intensity*2)/2* (MAR0 peak intensity+MAR1 peak intensity+MAR2 peak intensity)*100%.

A further data set deals with Trastuzumab-G2F. The data set is described as follows: HpFT-2HR and HpFT-4HR transferring GDP-FAmP4Biotin or GDP-FAzP4Biotin to Trastuzumab-G2F. The conditions noted are these: enzyme 0.5 mg/mL, 30° C., 6 h, FIG. 6(A). Here is the method:
To 40 mM Tris-HCl (pH 7.5) buffer were added Trastuzumab-G2F (2 mg/mL final), GDP-FAmP4Biotin (1 mM final), MgCl2 (20 mM final), and different HpFT enzymes (HpFT-4HR, HpFT-4HR(M4), HpFT-4HR(M7), HpFT-6HR, HpFT-3HR, HpFT-2HR, HpFT-1HR, or HpFT-0HR) (0.5 mg/mL final) in sequence, and the resulting mixed solution was allowed to react at 30° C. for 3 h. Three parallels were set up for each group. After the reaction time point was reached, to the reaction solution was added 10 mM LacNAc (N-acetyl-D-lactosamine), and the reaction was terminated by a desalting column (Zeba™ Spin Desalting Columns/2 ml/40K, Thermo Fisher Scientific), and finally mass spectrometry was carried out and % of conversion was calculated. % of conversion=(MAR0 peak intensity*0+MAR1peak intensity*1+MAR2 peak intensity*2+MAR3 peak intensity*3+MAR4 peak intensity*4)/4* (MAR0 peak intensity+MAR1 peak intensity+MAR2 peak intensity+MAR3 peak intensity+MAR4 peak intensity)*100%.
To 40 mM Tris-HCl (pH 7.5) buffer were added Trastuzumab-G2F (2 mg/mL final), GDP-FAmP4Biotin or GDP-FAzP4Biotin (1 mM final), MgCl2 (20 mM final), and HpFT-2HR or HpFT-4HR (0.5 mg/mL final) in sequence, and the resulting mixed solution was allowed to react at 30° C. for 6 h. Three parallels were set up for each group. After the reaction time point was reached, to the reaction solution was added 10 mM LacNAc, and the reaction was terminated by a desalting column (Zeba™ Spin Desalting Columns/2 ml/40K, Thermo Fisher Scientific), and finally mass spectrometry was carried out and % of conversion was calculated. % of conversion was calculated according to Example 17.

Data set [2] deals with Trastuzumab-(Fucα1,6)(GalNAzβ1,4)GlcNAc. Description: Transfer of GDP-FAmP4Biotin to Trastuzumab-(Fucα1,6)(GalNAzβ1,4)GlcNAc by different HpFTs. The conditions noted are these: donor GDP-FAmP4Biotin 1 mM, enzyme 0.5 mg/mL, 30° C., 3 h; FIG. 3.

B1: HpFT-2HR: H. pylori α-1,3-fucosyltransferase variant: catalytically active domain, two heptapeptide repeat sequences and C-terminus fused His tag (protein)
chain: MFQPLLDAFIESASIEKMVSKSPPPPLKIAVANWWGDEEIKEFKKSVLYFILSQRYAITLHQNPNESSDLVFSNPLGAARKILSYQNTKRVFYTGENESPNFNLFDYAIGFDELDFNDRYLRMPLYYAHLHYEAELVNDTTAPYKLKDNSLYALKKPSHHFKENHPNLCAVVNDESDLLKRGFASFVASNANAPMRNAFYDALNSIEPVTGGGSVRNTLGYKVGNKSEFLSQYKFNLCFENSQGYGYVTEKILDAYFSHTIPIYWGSPSVAKDFNPKSFVNVHDFNNFDEAIDYIKYLHTHPNAYLDMLYENPLNTLDGKAYFYQDLSFKKILDFFKTILENDTIYHNNPFIFYRDLHEPLISIDDLRVNYDDLRVNYLEHHHHHH
modifications: Catalytically active domain of Helicobacter pylori Alpha-(1,3)-fucosyltransferase (GenBank No.AAD07710.1) with 2 heptapeptide repeats and a C-terminal His tag
Take B1: the “catalytic activity as compared with HpFT-4HR (% of conversion)” value in data set [1] is on record as “significantly improved catalytic activity”. Moreover, the “activity in catalyzing the transfer of GDP-FAmP4Biotin relative to transfer of GDP-FAzP4Biotin” value in the data set on Trastuzumab-G2F (donor 1 mM) was “significantly higher”. The “activity in catalyzing the transfer of GDP-FAmP4Biotin, as compared with HpFT-4HR” value with Trastuzumab-G2F (donor GDP-FAmP4Biotin 1 mM) is “significantly improved activity”. For the same molecule, in the data set on Trastuzumab-G2F (donor GDP-FAzP4Biotin 1 mM), the “activity in catalyzing the transfer of GDP-FAzP4Biotin, as compared with HpFT-4HR” value is listed as “significantly improved activity”. Besides, in data set [2], the “catalytic activity among the HpFT variants” value was “relatively high catalytic activity” and the “catalytic activity as compared with HpFT-4HR (% of conversion)” value is “significantly improved catalytic activity”.
